“Also recorded” adds a separate entry of the source.
B1: (OVA)-3-1: ovalbumin modified via SMCC with nonasaccharide 3-1, average of three saccharides per OVA (conjugate)
chain: GSIGAASMEFCFDVFKELKVHHANENIFYCPIAIMSALAMVYLGAKDSTRTQINKVVRFDKLPGFGDSIEAQCGTSVNVHSSLRDILNQITKPNDVYSFSLASRLYAEERYPILPEYLQCVKELYRGGLEPINFQTAADQARELINSWVESQTNGIIRNVLQPSSVDSQTAMVLVNAIVFKGLWEKAFKDEDTQAMPFRVTEQESKPVQMMYQIGLFRVASMASEKMKILELPFASGTMSMLVLLPDEVSGLEQLESIINFEKLTEWTSSNVMEERKIKVYLPRMKMEEKYNLTSVLMAMGITDVFSSSANLSGISSAESLKISQAVHAAHAEINEAGREVVGSAEAGVDAASVSEEFRADHPFLFCIKHIATNAVLFFGRCVSP
B2: ovalbumin (protein, UniProt P01012 2-386, looked up)
Ovalbumin: B1 chain
notes: model antigen, unmodified

Legend:
OTII T cells = assay: In vitro restimulation with OVA peptide of T cells from immunized, rechallenged mice; type: in vivo, mouse; conditions: OVA peptide 100 μg mL^−1, 24 h
Method: FIGS. 8A and 8B are a series of dot plots (FIG. 8A) and a graph (FIG. 8B) showing that the oligosaccharide-mediated targeting of steady state dendritic cells leads to T cell tolerance. […] 2×10^7 OTII splenocytes were adoptively transferred into B6.Ly5.2/Cr recipients and then immunized by subcutaneous injection with PBS, OVA (200 ng), (OVA)-3-1 (200 ng), (OVA)-3-1 (200 ng)+mBSA (50 μg) or OVA peptide (100 μg) in Incomplete Freund's Adjuvant. At 8 days after these initial immunizations, mice received an antigenic rechallenge of OVA peptide (100 μg) in Complete Freund's Adjuvant. On day ten mice were sacrificed and cells were isolated from the draining lymph node, total T cells were purified by negative selection and the number of OTII T cells were counted by FACS as described for FIG. 6. […]
For T cell proliferation assays in adoptive transfer experiments, inguinal lymph nodes from each experimental group (3 mice/group) were pooled and dissociated with collagenase/EDTA as described above. […] Response to OVA peptide was determined by subtracting background proliferation (no peptide) from specific, peptide-induced proliferation. […] The proliferation index was calculated as the ratio of the response to OVA peptide in an experimental group to the response to OVA peptide in the PBS group.

purified T cells = assay: Addition to purified T cells in the absence of antigen-presenting cells; type: cell-based, mouse; conditions: no antigen-presenting cells
[1] = test system: CD8α+ and CD8α− dendritic cells; assay: Antigen presentation by sorted CD8α+ and CD8α− dendritic cell subsets to OTII T cells; type: cell-based, mouse; conditions: for presentation to OTII T cells by individual dendritic cell subsets: CD8α+ and CD8α− subsets
Method: FIG. 5 is a graph showing that both dendritic cell subsets, i.e., cells that are CD8α+ and CD8α^−, can present (OVA)-301. CD11c+ dendritic cells were stained with antibody against CD8α and I-A^b MHC class H molecules and sorted into their respective CD8α+ and CD8α^− populations. 2×10^4 cells of each subtype were incubated with 1×10^5 purified OTII T cells with graded doses of OVA or (OVA)-3-1 for eighty-four hours with [^3H]thymidine (1 μCi) added for the last twelve hours. All data points were performed in triplicate.
In the mouse, there are three subsets of dendritic cells, which are defined by their expression of the cellular antigens CD8 and CD4, namely CD8 α^+CD4^−, CD8α^−CD4^+, and CD8αCD4^14,15. Many functional differences among these subsets have been described and it has been argued that the CD8α^+ subset may be solely responsible for maintaining peripheral tolerance while the CD8α^− subset induces immunity to captured antigen^14 To determine if the high-mannose receptor was restricted to a particular subset, a fluorescence cell sorter was used to separate dendritic cells into their respective CD8α^+ and CD8α^− subsets. Each subset was then tested for its ability to present OVA and (OVA)-3-1 to OTII T cells (FIG. 5). […] Thus, both dendritic cell subsets expressed a receptor capable of binding nonasaccharide 3-1 and mediating uptake of antigens modified with this oligosaccharide.
To obtain sufficient numbers of dendritic cells for antigen presentation and cytokine analysis, C57BL/6 mice were injected with a Flt3-ligand secreting tumor cell line to promote the expansion of dendritic cells. Fourteen days after this administration the mice were sacrificed and the spleens were isolated. Dendritic cells were purified from the spleens by positive selection with anti-CD11c microbeads as described above and stained with FITC-conjugated anti-1-A^b and cychrome-conjugated anti-CD8α. Cells were then sorted on a fluorescence-activated cell sorter, a MoFlo, (Dakocytomaton, Glostrup Denmark) into CD8α^+I-A^b+ and CD8α^−I-A^b+ populations. The purity of each subset was 80% with approximately 6% cross-contamination. Dendritic cells from each subset were used in antigen proliferation assays as described above (section 3.5.5).

| Molecule | ability of T cells from immunized mice to respond to dendritic cell-presented OVA peptide in vitro (OTII T cells) | T cell proliferation (purified T cells) | presentation to OTII T cells by individual dendritic cell subsets [1] | presentation to OTII T cells by individual dendritic cell subsets ([1]; listed as (OVA)-301) | efficiency of presentation by CD8α+ subset relative to CD8α− subset ([1]; sorted subsets, OTII T cells) |
| --- | --- | --- | --- | --- | --- |
| B1 | significantly less responsive; also recorded: refractory to antigenic stimulation in vitro | did not led to T cell proliferation | presented by each subset | can present | approximately 2 fold |
| B2 | strongly activated |  | only weakly presented |  |  |

Source: patent US8273357B2, “Antigen-carbohydrate conjugates” (Massachusetts Institute of Technology, priority 2004, dated 2012)
